# In patent US20260085097A1 (TEXAS A AND M UNIVERSITY SYSTEM, published 2026):
# Where two headings read alike, the source gives them in different places.
# What was measured:
# [1] = biological target: Shiga toxin 2a (Stx2a) holotoxin (Escherichia coli (Shiga …, UniProt P09385 23-319; P09386 20-89); experiment: cell-based or functional assay
# Target sequence in this assay (P09385 23-319, chain 1 of 2): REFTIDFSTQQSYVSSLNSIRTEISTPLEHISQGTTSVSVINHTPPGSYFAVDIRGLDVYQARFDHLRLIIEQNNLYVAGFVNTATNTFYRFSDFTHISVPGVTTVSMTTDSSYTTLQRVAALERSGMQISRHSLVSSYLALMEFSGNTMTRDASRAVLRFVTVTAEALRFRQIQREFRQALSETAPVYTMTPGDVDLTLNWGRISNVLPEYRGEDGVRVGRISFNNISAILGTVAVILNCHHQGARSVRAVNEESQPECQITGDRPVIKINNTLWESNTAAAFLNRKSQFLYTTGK
# Target sequence in this assay (P09386 20-89, tags left off, chain 2 of 2): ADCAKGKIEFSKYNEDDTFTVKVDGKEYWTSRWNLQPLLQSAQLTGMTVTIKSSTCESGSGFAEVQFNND
# [2] = biological target: T1, Shiga toxin 2a (Stx2a) holotoxin (Escherichia coli (Shiga …, UniProt P09385 23-319; P09386 20-89); experiment: cell-based or functional assay; remark: listed apart in the source
# T1 sequence (P09385 23-319 limits assumed, one chain of several): as the sequence (P09385 23-319, chain 1 of 2) above
# [3] = biological target: T1, Shiga toxin 2a (Stx2a) holotoxin; experiment: BLI (BLItz), biotinylated Stx2a holotoxin on streptavidin sensor, apparent KD
# [4] = biological target: T2, Stx2a-A1 fragment with a C-terminus 6xHis tag (Escherichia coli (Shiga …, UniProt P09385 23-272)); experiment: ELISA at pH 6.0, plate coated with 4 ug/mL Stx2a-A1
# T2 sequence (P09385 23-272, tags left off): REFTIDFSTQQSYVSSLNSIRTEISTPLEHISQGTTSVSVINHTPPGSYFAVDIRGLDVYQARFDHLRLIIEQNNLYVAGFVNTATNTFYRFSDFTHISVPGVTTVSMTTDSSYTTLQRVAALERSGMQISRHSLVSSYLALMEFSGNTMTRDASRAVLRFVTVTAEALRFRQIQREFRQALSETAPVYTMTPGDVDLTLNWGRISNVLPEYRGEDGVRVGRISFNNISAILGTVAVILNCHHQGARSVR
# [5] = biological target: T2, Stx2a-A1 fragment with a C-terminus …; experiment: ELISA at pH 7.4, plate coated with 4 ug/mL Stx2a-A1
# [6] = biological target: T1, Shiga toxin 2a (Stx2a) holotoxin
# [7] = biological target: T1, Shiga toxin 2a (Stx2a) holotoxin; experiment: ELISA, plate coated with full-length Stx2a
# [8] = biological target: T1, Shiga toxin 2a (Stx2a) holotoxin; remark: listed apart in the source
# [9] = biological target: T1, Shiga toxin 2a (Stx2a) holotoxin; experiment: BLI (BLItz), biotinylated Stx2a holotoxin on streptavidin sensor
# [10] = biological target: T1, Shiga toxin 2a (Stx2a) holotoxin; remark: listed apart in the source
# [11] = biological target: T1, Shiga toxin 2a (Stx2a) holotoxin; experiment: screen of E. coli lysates for Stx2a binding after off-rate selection
# [12] = biological target: T1, Shiga toxin 2a (Stx2a) holotoxin; remark: listed apart in the source
binder,measurement,setting,value
DARPin #16 (designed binder) DLGKKLLEAARAGQDDEVRILMANGADVNAADPAGWTPLHLAACYGHLEIVGVLLKNGADVNALDWGGWTPLHLAAVIGHLEIVGVLLKHGADVNATDLSGWTPLHLAAFRGHLEIVEVLLKHGADVNAQDKFGKTAFDISIDNGNEDLAEILQSSS,"EC50 of Stx2a neutralization, Vero E6 toxin challenge assay (cell viability)",[1],> 1000 nM
DARPin HT (designed binder) MGSSHHHHHHSSGLVPRGSHMEQKLISEEDLGSDLGKKLLEAARAGQDDEVRILMANGADVNAGDPFGFTPLHLAAMFGHLEIVEVLLKNGADVNAHDEYGFTPLHLAAVVGHLEIVEVLLKNGADVNACDNQGGTPLHLAAHTGHLEIVEVLLKHGADVNAQDKFGKTAFDISIDNGNEDLAEILQSSS,"EC50 of Stx2a neutralization, Vero E6 toxin challenge assay",[2],1900 nM
same,Kd,[3],409 nM
same,EC50,[4],1.2 nM
same,EC50,[5],1.2 nM
same,EC50 (read off the curve),[6],~1 nM
DARPin RI (designed binder) MGSSHHHHHHSSGLVPRGSHMEQKLISEEDLGSDLGKKLLEAARAGQDDEVRILMANGADVNAGDPFGFTPLHLAAMFGHLEIVEVLLKNGADVNAHDEYGFTPLHLAAVVGHLEIVEVLLKNGADVNACDNQGGTPLHLAARIGHLEIVEVLLKHGADVNAQDKFGKTAFDISIDNGNEDLAEILQSSS,fold improved toxin neutralization activity in the Vero E6 toxin challenge assay,[2],~4 fold
same,EC50 (read off the curve),[6],~1 nM
same,fold improved toxin-binding ability in ELISA (against parent 10B),[7],~8 fold
DARPin 10B (designed binder) MGSSHHHHHHSSGLVPRGSHMEQKLISEEDLGSDLGKKLLEAARAGQDDEVRILMANGADVNAGDPFGFTPLHLAAMFGHLEIVEVLLKNGADVNAHDEYGFTPLHLAAVVGHLEIVEVLLKNGADVNACDNQGGTPLHLAAVDGHLEIVEVLLKHGADVNAQDKFGKTAFDISIDNGNEDLAEILQSSS,Kd,[8],3540 nM
same,"EC50 of Stx2a neutralization, Vero E6 toxin challenge assay",[2],2700 nM
same,"EC50 of Stx2a neutralization, Vero E6 toxin challenge assay (cell viability)",[2],> 1000 nM
same,Kd,[9],3540 nM
same,Kd,[3],3450 nM
same,EC50,[4],3.8 nM
same,EC50,[5],3.7 nM
same,EC50 (read off the curve),[10],~4 nM
DARPin Off-rate #26 (designed binder) MGSSHHHHHHSSGLVPRGSHMEQKLISEEDLGSDLGKKLLEAARAGQDDEVRILMANGADVNAGDPFGFTPLHLAAMFGHLEIVEVLLKNGADVNAHEEYGFTPLHLAAVVGHLEIVEVLLKNGADVNACDNQGGTPLHLASHTGHLEIVEVLLKHGADVNAQDKFGKTAFDISIDTGNEDLAEILQSSS,binding result,[11],binds
DARPin Off-rate #28 (designed binder) MGSSHHHHHHSSGLVPRGSHMEQKLISEEDLGSDLGKKLLEAARAGQDDEVRILMANGADVNAGDPFGFTPLHLAAMYGHLEIVEVLLKNGADVNAHEEYGFTPLHLAAVVGHLEIVEVLLKNGADVNACDNQGGTPLHLAARIGHLEIVEVLLKHGADVNAQDKFGKTAFDISIDNGNEDLAEILQSSS,binding result,[11],binds
DARPin Off-rate #27 (designed binder) MGSSHHHHHHSSGLVPRGSHMEQKLISEEDLGSDLGKKLLEAARAGQDDEVRFLMANGADVNAGDPFGFTPLHLAAMFGHLEIVEVLLKNGADENAHEEYGFTPLHLAAVVGHLEIVEVLLKNGADVNACDNQGGTPLHLAAHTGHLEIVEVLLKHGADVNAQDKFGKTAFDISIDNGNEDLAEILQSSS,binding result,[11],binds
DARPin #3 (designed binder) MGSSHHHHHHSSGLVPRGSHMEQKLISEEDLGSDLGKKLLEAARAGQDDEVRILMANGADVNACDSNGRTPLHLAAVRGHLEIVEVLLKNGADVNAWDVIGKTPLHLAADGGHLEIVEVLLKNGADVNAWDLIGRTPLHLAALDGHLEIVEVLLEHGADVNAYDRPGHTPLHLAARRGHLEIVEVLLKYGADVNAQDKFGKTAFDISIDNGNEDLAEILQSSS,"EC50 of Stx2a neutralization, Vero E6 toxin challenge assay (cell viability)",[2],> 1000 nM
same,Kd,[9],8.83 nM
same,Kd,[3],8.8 nM
same,koff,[12],0.0438 s⁻¹
